Measured values as given in US20250186541A1, “DLL3 TARGETING PEPTIDES AND CONSTRUCTS THEREOF” (MARIANA ONCOLOGY INC., priority 2023, published 2025).
Numbered stars: 1 amine (or outer) side, 2 acyl side, 3 side chain; on linkers, the order of the positions; unused ones are H or OH. Bridge positions count the residues as written; N and C are the ends. Square brackets hold non-standard residues; d marks the D form. * marks the point of attachment. 5,5‑diMe‑P = 5,5-dimethyl-L-proline, CC1(C)CC[C@@H](C(=O)[*:2])N1[*:1]; DOTA = O=C(O)CN1CCN(CC(=O)O)CCN(CC(=O)*)CCN(CC(=O)O)CC1; Phe(4-CF3) = N[C@@H](Cc1ccc(C(F)(F)F)cc1)C(=O)O; Trp(7-aza) = N[C@@H](Cc1c[nH]c2ncccc12)C(=O)O; Pro(4,4-F2) = O=C(O)[C@@H]1CC(F)(F)CN1; 1Nal = N[C@@H](Cc1cccc2ccccc12)C(=O)O; 2Nal = N[C@@H](Cc1ccc2ccccc2c1)C(=O)O; cisHyp = O=C(O)[C@@H]1C[C@H](O)CN1; hPhe = N[C@@H](CCc1ccccc1)C(=O)O; tBuAla = CC(C)(C)C[C@H](N)C(=O)O; Cha = N[C@@H](CC1CCCCC1)C(=O)O; Cba = N[C@@H](CC1CCC1)C(=O)O; Chg = N[C@H](C(=O)O)C1CCCCC1; αMeP = C[C@@]1(C(=O)O)CCCN1; NMeA = CN[C@@H](C)C(=O)O; Nle = CCCC[C@H](N)C(=O)O; dNMeA = CN[C@H](C)C(=O)O; Aze = O=C(O)[C@@H]1CCN1; Ahx = NCCCCCC(=O)O

B1: Cpd #28 (peptide)
peptide: Ac-MSDCWLQWNCPAD-NH2
modifications: disulfide 4-10
SMILES: CSCC[C@H](NC(C)=O)C(=O)N[C@@H](CO)C(=O)N[C@@H](CC(=O)O)C(=O)N[C@H]1CSSC[C@@H](C(=O)N2CCC[C@H]2C(=O)N[C@@H](C)C(=O)N[C@@H](CC(=O)O)C(N)=O)NC(=O)[C@H](CC(N)=O)NC(=O)[C@H](Cc2c[nH]c3ccccc23)NC(=O)[C@H](CCC(N)=O)NC(=O)[C@H](CC(C)C)NC(=O)[C@H](Cc2c[nH]c3ccccc23)NC1=O
B2: Cpd #29 (peptide)
peptide: Ac-MSDCWLQWNCPFA-NH2
modifications: disulfide 4-10
SMILES: CSCC[C@H](NC(C)=O)C(=O)N[C@@H](CO)C(=O)N[C@@H](CC(=O)O)C(=O)N[C@H]1CSSC[C@@H](C(=O)N2CCC[C@H]2C(=O)N[C@@H](Cc2ccccc2)C(=O)N[C@@H](C)C(N)=O)NC(=O)[C@H](CC(N)=O)NC(=O)[C@H](Cc2c[nH]c3ccccc23)NC(=O)[C@H](CCC(N)=O)NC(=O)[C@H](CC(C)C)NC(=O)[C@H](Cc2c[nH]c3ccccc23)NC1=O
B3: Cpd #61 (peptide)
peptide: Ac-MSDCWLQ[1Nal]NCPFD[dK](DOTA)-NH2
modifications: disulfide 4-10
SMILES: CSCC[C@H](NC(C)=O)C(=O)N[C@@H](CO)C(=O)N[C@@H](CC(=O)O)C(=O)N[C@H]1CSSC[C@@H](C(=O)N2CCC[C@H]2C(=O)N[C@@H](Cc2ccccc2)C(=O)N[C@@H](CC(=O)O)C(=O)N[C@H](CCCCNC(=O)CN2CCN(CC(=O)O)CCN(CC(=O)O)CCN(CC(=O)O)CC2)C(N)=O)NC(=O)[C@H](CC(N)=O)NC(=O)[C@H](Cc2cccc3ccccc23)NC(=O)[C@H](CCC(N)=O)NC(=O)[C@H](CC(C)C)NC(=O)[C@H](Cc2c[nH]c3ccccc23)NC1=O
B4: Cpd #49 (peptide)
peptide: Ac-MSDCWLQWNC[NMeA]FD[dK](DOTA)-NH2
modifications: disulfide 4-10
SMILES: CSCC[C@H](NC(C)=O)C(=O)N[C@@H](CO)C(=O)N[C@@H](CC(=O)O)C(=O)N[C@H]1CSSC[C@@H](C(=O)N(C)[C@@H](C)C(=O)N[C@@H](Cc2ccccc2)C(=O)N[C@@H](CC(=O)O)C(=O)N[C@H](CCCCNC(=O)CN2CCN(CC(=O)O)CCN(CC(=O)O)CCN(CC(=O)O)CC2)C(N)=O)NC(=O)[C@H](CC(N)=O)NC(=O)[C@H](Cc2c[nH]c3ccccc23)NC(=O)[C@H](CCC(N)=O)NC(=O)[C@H](CC(C)C)NC(=O)[C@H](Cc2c[nH]c3ccccc23)NC1=O
B5: Cpd #50 (peptide)
peptide: Ac-MSDCWLQWNC[dNMeA]FD[dK](DOTA)-NH2
modifications: disulfide 4-10
SMILES: CSCC[C@H](NC(C)=O)C(=O)N[C@@H](CO)C(=O)N[C@@H](CC(=O)O)C(=O)N[C@H]1CSSC[C@@H](C(=O)N(C)[C@H](C)C(=O)N[C@@H](Cc2ccccc2)C(=O)N[C@@H](CC(=O)O)C(=O)N[C@H](CCCCNC(=O)CN2CCN(CC(=O)O)CCN(CC(=O)O)CCN(CC(=O)O)CC2)C(N)=O)NC(=O)[C@H](CC(N)=O)NC(=O)[C@H](Cc2c[nH]c3ccccc23)NC(=O)[C@H](CCC(N)=O)NC(=O)[C@H](CC(C)C)NC(=O)[C@H](Cc2c[nH]c3ccccc23)NC1=O
B6: Cpd #41 (peptide)
peptide: {DOTA}-[Ahx]SDCWLQWNCP[hPhe]D-NH2
modifications: disulfide 4-10
SMILES: CC(C)C[C@@H]1NC(=O)[C@H](Cc2c[nH]c3ccccc23)NC(=O)[C@@H](NC(=O)[C@H](CC(=O)O)NC(=O)[C@H](CO)NC(=O)CCCCCNC(=O)CN2CCN(CC(=O)O)CCN(CC(=O)O)CCN(CC(=O)O)CC2)CSSC[C@@H](C(=O)N2CCC[C@H]2C(=O)N[C@@H](CCc2ccccc2)C(=O)N[C@@H](CC(=O)O)C(N)=O)NC(=O)[C@H](CC(N)=O)NC(=O)[C@H](Cc2c[nH]c3ccccc23)NC(=O)[C@H](CCC(N)=O)NC1=O
B7: Cpd #46 (peptide)
peptide: Ac-MSDCWLQWNC[5,5‑diMe‑P]FD[dK](DOTA)-NH2
modifications: disulfide 4-10
SMILES: CSCC[C@H](NC(C)=O)C(=O)N[C@@H](CO)C(=O)N[C@@H](CC(=O)O)C(=O)N[C@H]1CSSC[C@@H](C(=O)N2[C@H](C(=O)N[C@@H](Cc3ccccc3)C(=O)N[C@@H](CC(=O)O)C(=O)N[C@H](CCCCNC(=O)CN3CCN(CC(=O)O)CCN(CC(=O)O)CCN(CC(=O)O)CC3)C(N)=O)CCC2(C)C)NC(=O)[C@H](CC(N)=O)NC(=O)[C@H](Cc2c[nH]c3ccccc23)NC(=O)[C@H](CCC(N)=O)NC(=O)[C@H](CC(C)C)NC(=O)[C@H](Cc2c[nH]c3ccccc23)NC1=O
B8: Cpd #62 (peptide)
peptide: Ac-MSDCWLQ[2Nal]NCPFD[dK](DOTA)-NH2
modifications: disulfide 4-10
SMILES: CSCC[C@H](NC(C)=O)C(=O)N[C@@H](CO)C(=O)N[C@@H](CC(=O)O)C(=O)N[C@H]1CSSC[C@@H](C(=O)N2CCC[C@H]2C(=O)N[C@@H](Cc2ccccc2)C(=O)N[C@@H](CC(=O)O)C(=O)N[C@H](CCCCNC(=O)CN2CCN(CC(=O)O)CCN(CC(=O)O)CCN(CC(=O)O)CC2)C(N)=O)NC(=O)[C@H](CC(N)=O)NC(=O)[C@H](Cc2ccc3ccccc3c2)NC(=O)[C@H](CCC(N)=O)NC(=O)[C@H](CC(C)C)NC(=O)[C@H](Cc2c[nH]c3ccccc23)NC1=O
B9: Cpd #63 (peptide)
peptide: Ac-MSDCWLQ[hPhe]NCPFD[dK](DOTA)-NH2
modifications: disulfide 4-10
SMILES: CSCC[C@H](NC(C)=O)C(=O)N[C@@H](CO)C(=O)N[C@@H](CC(=O)O)C(=O)N[C@H]1CSSC[C@@H](C(=O)N2CCC[C@H]2C(=O)N[C@@H](Cc2ccccc2)C(=O)N[C@@H](CC(=O)O)C(=O)N[C@H](CCCCNC(=O)CN2CCN(CC(=O)O)CCN(CC(=O)O)CCN(CC(=O)O)CC2)C(N)=O)NC(=O)[C@H](CC(N)=O)NC(=O)[C@H](CCc2ccccc2)NC(=O)[C@H](CCC(N)=O)NC(=O)[C@H](CC(C)C)NC(=O)[C@H](Cc2c[nH]c3ccccc23)NC1=O

These binders were tested against T1, Biotinylated human DLL3 (human, UniProt Q9NYJ7 27-492, biotinylated (site not stated)) (assay: SPR, biotin-hDLL3 on SA chip).
T1 construct: also called Delta-like ligand 3; Delta Like Canonical Notch Ligand 3
T1 sequence (looked up): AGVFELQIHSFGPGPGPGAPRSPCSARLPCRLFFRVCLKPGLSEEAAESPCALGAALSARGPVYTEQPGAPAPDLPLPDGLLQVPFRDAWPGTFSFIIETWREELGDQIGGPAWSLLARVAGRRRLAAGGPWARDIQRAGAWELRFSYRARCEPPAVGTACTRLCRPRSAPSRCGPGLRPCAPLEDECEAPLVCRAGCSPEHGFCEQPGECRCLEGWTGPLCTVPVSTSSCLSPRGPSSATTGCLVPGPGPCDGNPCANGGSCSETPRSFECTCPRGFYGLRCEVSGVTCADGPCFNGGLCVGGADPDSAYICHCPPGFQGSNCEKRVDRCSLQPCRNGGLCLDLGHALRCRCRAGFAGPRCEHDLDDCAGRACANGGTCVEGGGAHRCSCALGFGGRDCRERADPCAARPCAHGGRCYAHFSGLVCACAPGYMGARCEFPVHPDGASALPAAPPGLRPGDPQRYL

| Binder | Kd [nM] | binding result |
| --- | --- | --- |
| Ac-MSDCW[Nle]QWNCPFD[dK](DOTA)-NH2 (disulfide 4-10) [Cpd #68] | 15.8 |  |
| {hexanoic acid}-SDCWLQWNCPFD[dK](DOTA)-NH2 (disulfide 3-9) [Cpd #75] | 9.6 |  |
| B1 |  | no binding |
| B2 |  | no binding |
| B3 | 2.72 |  |
| Ac-MSDCWLQWNCPFD[dK](DOTA)-NH2 (disulfide 4-10) [Cpd #30] | 8.6 |  |
| Ac-[dK]SDCWLQWNCPFD[dK](DOTA)-NH2 (disulfide 4-10) [Cpd #84] | 29 |  |
| Ac-KSDCWLQWNCPFD[dK](DOTA)-NH2 (disulfide 4-10) [Cpd #83] | 32 |  |
| B4 | 19.6 |  |
| B5 | 4.94 |  |
| Ac-MSDCW[Chg]QWNCPFD[dK](DOTA)-NH2 (disulfide 4-10) [Cpd #71] | 4.52 |  |
| Ac-MSDCW[Cha]QWNCPFD[dK](DOTA)-NH2 (disulfide 4-10) [Cpd #69] | 16.4 |  |
| Ac-MSDCWLQ[Trp(7-aza)]NCPFD[dK](DOTA)-NH2 (disulfide 4-10) [Cpd #64] | 20.1 |  |
| B6 | 83 |  |
| Ac-MSDCW[tBuAla]QWNCPFD[dK](DOTA)-NH2 (disulfide 4-10) [Cpd #67] | 4.03 |  |
| Ac-[dE]SDCWLQWNCPFD[dK](DOTA)-NH2 (disulfide 4-10) [Cpd #82] | 17.1 |  |
| B7 | 12 |  |
| Ac-MSDCWLQWNC[cisHyp]FD[dK](DOTA)-NH2 (disulfide 4-10) [Cpd #45] | 40.6 |  |
| Ac-SDCWLQWNCPFD[dK](DOTA)-NH2 (disulfide 3-9) [Cpd #31] | 25.5 |  |
| Ac-MSDCWLQWNC[αMeP]FD[dK](DOTA)-NH2 (disulfide 4-10) [Cpd #51] | 2.6 |  |
| B8 | 2.5 |  |
| Ac-[Chg]SDCWLQWNCPFD[dK](DOTA)-NH2 (disulfide 4-10) [Cpd #77] | 7.4 |  |
| Ac-MSDCW[Cba]QWNCPFD[dK](DOTA)-NH2 (disulfide 4-10) [Cpd #70] | 6.95 |  |
| Ac-MSDCWLQ[Phe(4-CF3)]NCPFD[dK](DOTA)-NH2 (disulfide 4-10) [Cpd #65] | 32.4 |  |
| B9 | 31.3 |  |
| Ac-MSDCWLQWNC[Aze]FD[dK](DOTA)-NH2 (disulfide 4-10) [Cpd #48] | 64 |  |
| Ac-MSDCWLQWNC[Pro(4,4-F2)]FD[dK](DOTA)-NH2 (disulfide 4-10) [Cpd #52] | 17 |  |
